Target: T1, recombinant human IgE (human, UniProt P01854-1 1-428)
T1 construct: made in-house (ALK); preloaded on immobilised FcεRIα in the displacement ELISA
Assay: IgE-FcεRIα displacement ELISA
Method: The displacement effect was tested using IgE-FcεRIα displacement ELISA assay. Maxisorp® microtiter plates (Thermo Scientific Nunc, Roskilde, Denmark) were coated with 100 μl streptavidin, 5 μg/ml (Thermo Scientific, Waltham, MA) for 18 h at 4° C. followed by wash with 300 μl washing buffer (PBS containing 0.05% Tween 20) using an AquaMax® 2000 plate washer (Molecular Devices, San Jose, CA). Remaining binding sites were blocked with 250 μl blocking buffer (PBS containing 2% BSA) for 2 h and washed with 300 μl washing buffer. Subsequently, the bound streptavidin was loaded with 100 μl (0.1 μg/ml) recombinant human FcεRIα (site specific biotinylated via avi-tag, made in-house, ALK, Hørsholm, Denmark) for 1 h and plates washed twice with 300 μl washing buffer. The bound receptor was then loaded with 100 μl recombinant human IgE (made in-house, ALK, Hørsholm, Denmark), 13 ng/ml (pre-titrated to reach an OD₄₅₀ signal in the range of 1.5-2.5 in the absence of displacement components) for 1h followed by three washes of 300 μl washing buffer.
displacement step: 100 μl sdAbs diluted in concentration series (pM-μM range) or blocking buffer only as a non-displacement negative control, were added to the ELISA wells and incubated for 1 h. Any IgE, displaced from the receptor by a sdAb was washed away by three washes of 300 μl washing buffer.
The ability of the various sdAbs to displace IgE from the receptor (FcεRIα) was evaluated by use of the ELISA based IgE-FcεRIα displacement assay. The percent displacement effect was calculated as the relative reduction in signal compared to the control with no sdAb added. The EC₅₀ values and the maximal effects were determined (table 15).

T1 sequence (P01854 other isoform, or with tags, fused parts or gaps): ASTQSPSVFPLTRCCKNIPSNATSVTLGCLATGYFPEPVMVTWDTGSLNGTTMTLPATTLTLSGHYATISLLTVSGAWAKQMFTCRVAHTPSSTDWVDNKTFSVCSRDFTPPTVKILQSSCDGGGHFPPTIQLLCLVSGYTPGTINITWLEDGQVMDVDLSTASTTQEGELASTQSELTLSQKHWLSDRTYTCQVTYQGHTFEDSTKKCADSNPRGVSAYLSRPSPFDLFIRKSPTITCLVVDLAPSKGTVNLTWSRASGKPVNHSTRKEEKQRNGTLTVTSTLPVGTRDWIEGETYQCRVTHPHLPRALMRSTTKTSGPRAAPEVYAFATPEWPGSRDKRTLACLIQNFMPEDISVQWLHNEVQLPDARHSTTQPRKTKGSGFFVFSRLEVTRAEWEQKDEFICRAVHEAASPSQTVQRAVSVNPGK

B1: CIgE4A1A1(GS3) (Fc fusion)
chain 1: GPPCPPCPAPEFLGGPSVFLFPPKPKDTLMISRTPEVTCVVVDVSQEDPEVQFNWYVDGVEVHNAKTKPREEQFNSTYRVVSVLTVLHQDWLNGKEYKCKVSNKGLPSSIEKTISKAKGQPREPQVYTLPPCQEEMTKNQVSLWCLVKGFYPSDIAVEWESNGQPENNYKTTPPVLDSDGSFFLYSRLTVDKSRWQEGNVFSCSVMHEALHNHYTQKSLSLSLGKGGGGSGGGGSGGGGSEVQLLESGGGLVQPGGSLRLSCAASGFTFGNYDMAWVRQAPGKRPEWVSSIDTGGDITHYADSVKGRFTISRDNAKNTLYLQMNSLRPEDTAVYWCATDEEYALGPNEFDYYGQGTLVTVSS
chain 2: GPPCPPCPAPEFLGGPSVFLFPPKPKDTLMISRTPEVTCVVVDVSQEDPEVQFNWYVDGVEVHNAKTKPREEQFNSTYRVVSVLTVLHQDWLNGKEYKCKVSNKGLPSSIEKTISKAKGQPREPQVCTLPPSQEEMTKNQVSLSCAVKGFYPSDIAVEWESNGQPENNYKTTPPVLDSDGSFFLVSRLTVDKSRWQEGNVFSCSVMHEALHNHYTQKSLSLSLGKGGGGSGGGGSGGGGSEVQLLESGGGLVQPGGSLRLSCAASGFTFGNYDMAWVRQAPGKRPEWVSSIDTGGDITHYADSVKGRFTISRDNAKNTLYLQMNSLRPEDTAVYWCATDEEYALGPNEFDYYGQGTLVTVSS
notes: also called CIgG4A1A1(G4S)3
Work on B1 yielded an EC50 of 0.036 µM and a Max effect of ~85%.

B2: CIgE4A1A1(GS)2 (Fc fusion)
chain 1: GPPCPPCPAPEFLGGPSVFLFPPKPKDTLMISRTPEVTCVVVDVSQEDPEVQFNWYVDGVEVHNAKTKPREEQFNSTYRVVSVLTVLHQDWLNGKEYKCKVSNKGLPSSIEKTISKAKGQPREPQVYTLPPCQEEMTKNQVSLWCLVKGFYPSDIAVEWESNGQPENNYKTTPPVLDSDGSFFLYSRLTVDKSRWQEGNVFSCSVMHEALHNHYTQKSLSLSLGKGGGGSGGGGSEVQLLESGGGLVQPGGSLRLSCAASGFTFGNYDMAWVRQAPGKRPEWVSSIDTGGDITHYADSVKGRFTISRDNAKNTLYLQMNSLRPEDTAVYWCATDEEYALGPNEFDYYGQGTLVTVSS
chain 2: GPPCPPCPAPEFLGGPSVFLFPPKPKDTLMISRTPEVTCVVVDVSQEDPEVQFNWYVDGVEVHNAKTKPREEQFNSTYRVVSVLTVLHQDWLNGKEYKCKVSNKGLPSSIEKTISKAKGQPREPQVCTLPPSQEEMTKNQVSLSCAVKGFYPSDIAVEWESNGQPENNYKTTPPVLDSDGSFFLVSRLTVDKSRWQEGNVFSCSVMHEALHNHYTQKSLSLSLGKGGGGSGGGGSEVQLLESGGGLVQPGGSLRLSCAASGFTFGNYDMAWVRQAPGKRPEWVSSIDTGGDITHYADSVKGRFTISRDNAKNTLYLQMNSLRPEDTAVYWCATDEEYALGPNEFDYYGQGTLVTVSS
notes: also called CIgG4A1A1(G4S)2
Binder B2 has an EC50 of 0.145 µM and a Max effect of ~70%.

B3: NIgG4B1A2(RS) (Fc fusion)
chain 1: QVQLQESGGGLVQTGGSLRLSCAVHGRTFSNTGMGWFRQAPGNERQFVAIISPSGTSTYYADSVKGRFTISRDPAKNTVYLQMNSLKMDDTAVYYCAASYGSNWSTLRHQRRNEYDAWGQGTQVAVSRSGPPCPPCPAPEFLGGPSVFLFPPKPKDTLMISRTPEVTCVVVDVSQEDPEVQFNWYVDGVEVHNAKTKPREEQFNSTYRVVSVLTVLHQDWLNGKEYKCKVSNKGLPSSIEKTISKAKGQPREPQVYTLPPCQEEMTKNQVSLWCLVKGFYPSDIAVEWESNGQPENNYKTTPPVLDSDGSFFLYSRLTVDKSRWQEGNVFSCSVMHEALHNHYTQKSLSLSLGK
chain 2: EVQLLESGGGLVQPGGSLRLSCAASGFRFGNYDMAWVRQAPGKRYEWVSSIDTGGDITHYADSVKGRFTISRDNAKNTLYLQMNSLRPEDTAEYWCATDEEYALGPNEFDYYGQGTLVTVSRSGPPCPPCPAPEFLGGPSVFLFPPKPKDTLMISRTPEVTCVVVDVSQEDPEVQFNWYVDGVEVHNAKTKPREEQFNSTYRVVSVLTVLHQDWLNGKEYKCKVSNKGLPSSIEKTISKAKGQPREPQVCTLPPSQEEMTKNQVSLSCAVKGFYPSDIAVEWESNGQPENNYKTTPPVLDSDGSFFLVSRLTVDKSRWQEGNVFSCSVMHEALHNHYTQKSLSLSLGK
In the case of B3, the Max effect is reported as > 95%.

B4: CIgE4A1A1(GS)1 (Fc fusion)
chain 1: GPPCPPCPAPEFLGGPSVFLFPPKPKDTLMISRTPEVTCVVVDVSQEDPEVQFNWYVDGVEVHNAKTKPREEQFNSTYRVVSVLTVLHQDWLNGKEYKCKVSNKGLPSSIEKTISKAKGQPREPQVYTLPPCQEEMTKNQVSLWCLVKGFYPSDIAVEWESNGQPENNYKTTPPVLDSDGSFFLYSRLTVDKSRWQEGNVFSCSVMHEALHNHYTQKSLSLSLGKGGGGSEVQLLESGGGLVQPGGSLRLSCAASGFTFGNYDMAWVRQAPGKRPEWVSSIDTGGDITHYADSVKGRFTISRDNAKNTLYLQMNSLRPEDTAVYWCATDEEYALGPNEFDYYGQGTLVTVSS
chain 2: GPPCPPCPAPEFLGGPSVFLFPPKPKDTLMISRTPEVTCVVVDVSQEDPEVQFNWYVDGVEVHNAKTKPREEQFNSTYRVVSVLTVLHQDWLNGKEYKCKVSNKGLPSSIEKTISKAKGQPREPQVCTLPPSQEEMTKNQVSLSCAVKGFYPSDIAVEWESNGQPENNYKTTPPVLDSDGSFFLVSRLTVDKSRWQEGNVFSCSVMHEALHNHYTQKSLSLSLGKGGGGSEVQLLESGGGLVQPGGSLRLSCAASGFTFGNYDMAWVRQAPGKRPEWVSSIDTGGDITHYADSVKGRFTISRDNAKNTLYLQMNSLRPEDTAVYWCATDEEYALGPNEFDYYGQGTLVTVSS
notes: label printed with IgE4/(GS); also called CIgG4A1A1(G4S)1
B4 was tested, and the Max effect was ~40%.

B5: CIgG4A1A1(RS) (Fc fusion)
chain 1: GPPCPPCPAPEFLGGPSVFLFPPKPKDTLMISRTPEVTCVVVDVSQEDPEVQFNWYVDGVEVHNAKTKPREEQFNSTYRVVSVLTVLHQDWLNGKEYKCKVSNKGLPSSIEKTISKAKGQPREPQVYTLPPCQEEMTKNQVSLWCLVKGFYPSDIAVEWESNGQPENNYKTTPPVLDSDGSFFLYSRLTVDKSRWQEGNVFSCSVMHEALHNHYTQKSLSLSLGKRSEVQLLESGGGLVQPGGSLRLSCAASGFTFGNYDMAWVRQAPGKRPEWVSSIDTGGDITHYADSVKGRFTISRDNAKNTLYLQMNSLRPEDTAVYWCATDEEYALGPNEFDYYGQGTLVTVSS
chain 2: GPPCPPCPAPEFLGGPSVFLFPPKPKDTLMISRTPEVTCVVVDVSQEDPEVQFNWYVDGVEVHNAKTKPREEQFNSTYRVVSVLTVLHQDWLNGKEYKCKVSNKGLPSSIEKTISKAKGQPREPQVCTLPPSQEEMTKNQVSLSCAVKGFYPSDIAVEWESNGQPENNYKTTPPVLDSDGSFFLVSRLTVDKSRWQEGNVFSCSVMHEALHNHYTQKSLSLSLGKRSEVQLLESGGGLVQPGGSLRLSCAASGFTFGNYDMAWVRQAPGKRPEWVSSIDTGGDITHYADSVKGRFTISRDNAKNTLYLQMNSLRPEDTAVYWCATDEEYALGPNEFDYYGQGTLVTVSS
With B5 the Max effect was < 20%.

B6: NIgG4A1A1(G4S)3 (Fc fusion)
chain 1: EVQLLESGGGLVQPGGSLRLSCAASGFTFGNYDMAWVRQAPGKRPEWVSSIDTGGDITHYADSVKGRFTISRDNAKNTLYLQMNSLRPEDTAVYWCATDEEYALGPNEFDYYGQGTLVTVSSGGGGSGGGGSGGGGSGPPCPPCPAPEFLGGPSVFLFPPKPKDTLMISRTPEVTCVVVDVSQEDPEVQFNWYVDGVEVHNAKTKPREEQFNSTYRVVSVLTVLHQDWLNGKEYKCKVSNKGLPSSIEKTISKAKGQPREPQVYTLPPCQEEMTKNQVSLWCLVKGFYPSDIAVEWESNGQPENNYKTTPPVLDSDGSFFLYSRLTVDKSRWQEGNVFSCSVMHEALHNHYTQKSLSLSLGK
chain 2: EVQLLESGGGLVQPGGSLRLSCAASGFTFGNYDMAWVRQAPGKRPEWVSSIDTGGDITHYADSVKGRFTISRDNAKNTLYLQMNSLRPEDTAVYWCATDEEYALGPNEFDYYGQGTLVTVSSGGGGSGGGGSGGGGSGPPCPPCPAPEFLGGPSVFLFPPKPKDTLMISRTPEVTCVVVDVSQEDPEVQFNWYVDGVEVHNAKTKPREEQFNSTYRVVSVLTVLHQDWLNGKEYKCKVSNKGLPSSIEKTISKAKGQPREPQVCTLPPSQEEMTKNQVSLSCAVKGFYPSDIAVEWESNGQPENNYKTTPPVLDSDGSFFLVSRLTVDKSRWQEGNVFSCSVMHEALHNHYTQKSLSLSLGK
In the case of B6, the EC50 is reported as 0.31 µM.

— patent US20250171562A1 (ALK ABELL, published 2025)
